Experimental data: patent publication US20080226632 (published 2008)

T1: HB-EGF (human, UniProt Q99075)
T1 chain: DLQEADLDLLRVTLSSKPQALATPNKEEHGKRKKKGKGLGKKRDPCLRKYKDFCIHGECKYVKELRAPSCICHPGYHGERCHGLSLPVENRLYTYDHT


Legend:
HB-EGF = target: T1, HB-EGF
EGF = EGF (human, UniProt P01133)
Chain of EGF (P01133 971-1023): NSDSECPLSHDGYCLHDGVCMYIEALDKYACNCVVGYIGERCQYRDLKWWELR

| binding result (HB-EGF) | binding result (EGF) | Binder |
| --- | --- | --- |
| no binding | no binding | PAR34 (antibody, V domains shown) VH: EIQLQQSGPELVKPGASVKVSCKASGYAFTNYNMYWVKQSHGKSLEWIGYIDPYYGDPGYSQKFKGKATLTVDKSSSTAYMHLNSLTSEDSAVYYCARRGNFPYYFDYWGQGTTLTVSS VL: DIKMTQSPSSMYASLGERVTITCKASQDINSYLSWFQQKPGKSPKTLIYRANRLVDGVPSRFSGSGSGQDYSLTISSLEYEDMGIYYCLQYDEFPYTFGGGTKLEIK |
| no binding | no binding | PAR80 (antibody, V domains shown) VH: EVQLQQSGAELVRSGASVKLSCTASGFNIKDYYIHWVKQRPEQGLEWIGCIDPENGDTEYAPNFQGRATMTADTSSNTAYLQLSSLTSEDTAVYYCYGGTITFAYWGQGTLVTVSA VL: QAVVTQESALTTSPGETVTLTCRSSTGAVTTSNSANWVQEKPDHLFTGLIGGTINRVPGVPARFSGSLIGDKAALTITGAQTEDEAIYFCALWYSNHWVFGGGTKLTVLG |
